Measurements reported in publication PMC4619449, “Heterodimerization of Two Pathological Mutants Enhances the Activity of Human Phosphomannomutase2” (PLoS ONE, 2015).

How the values were obtained:
[1] = target: T1, F119L phosphomannomutase2 (human) (UniProt O15305)
T1 sequence: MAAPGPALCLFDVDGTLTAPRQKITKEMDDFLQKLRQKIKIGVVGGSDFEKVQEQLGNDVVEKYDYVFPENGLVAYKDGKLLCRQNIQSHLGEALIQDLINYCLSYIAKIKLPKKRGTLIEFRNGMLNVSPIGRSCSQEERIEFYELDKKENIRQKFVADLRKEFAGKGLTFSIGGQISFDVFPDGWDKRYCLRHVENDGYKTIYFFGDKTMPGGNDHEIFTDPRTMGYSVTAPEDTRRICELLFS

[2] = target: the molecule itself; assay: SEC; analytical, BioSep-SEC-S3000 column, Hepes 20 mM pH 7.5, NaCl 150 mM, MgCl2 5 mM, room temperature, 0.5 ml/min; wt-PMM2 10 μg, F119L 7 μg, or mixture of 5 μg wt-PMM2 and 3.5 μg F119L

| Binder | corrected specific phosphoglucomutase activity (per amount of F119L) of Superdex75 fractions, F119L:R141H 1:1 to 1:3.5, compared with F119L alone; 5 μM Glc-1,6-P2 and 40 μM Glc-1P [1] [fold] | binding result [2] |
| --- | --- | --- |
| R141H phosphomannomutase2 (enzyme) MAAPGPALCLFDVDGTLTAPRQKITKEMDDFLQKLRQKIKIGVVGGSDFEKVQEQLGNDVVEKYDYVFPENGLVAYKDGKLLCRQNIQSHLGEALIQDLINYCLSYIAKIKLPKKRGTFIEFRNGMLNVSPIGRSCSQEEHIEFYELDKKENIRQKFVADLRKEFAGKGLTFSIGGQISFDVFPDGWDKRYCLRHVENDGYKTIYFFGDKTMPGGNDHEIFTDPRTMGYSVTAPEDTRRICELLFS | 3 | – |
| F119L phosphomannomutase2 (enzyme, human, UniProt O15305-1 1-246, looked up, Phosphomannomutase2 (PMM2), human, pathological variant p.Phe119Leu (rs80338701); also called hypomorphic mutant) MAAPGPALCLFDVDGTLTAPRQKITKEMDDFLQKLRQKIKIGVVGGSDFEKVQEQLGNDVVEKYDYVFPENGLVAYKDGKLLCRQNIQSHLGEALIQDLINYCLSYIAKIKLPKKRGTLIEFRNGMLNVSPIGRSCSQEERIEFYELDKKENIRQKFVADLRKEFAGKGLTFSIGGQISFDVFPDGWDKRYCLRHVENDGYKTIYFFGDKTMPGGNDHEIFTDPRTMGYSVTAPEDTRRICELLFS | – | binds |
| wild type phosphomannomutase2 (enzyme, human, UniProt O15305-1 1-246, looked up, Phosphomannomutase2 (PMM2), human, UniProt entry name PMM2_HUMAN; also called wt-PMM2; PMM2) MAAPGPALCLFDVDGTLTAPRQKITKEMDDFLQKLRQKIKIGVVGGSDFEKVQEQLGNDVVEKYDYVFPENGLVAYKDGKLLCRQNIQSHLGEALIQDLINYCLSYIAKIKLPKKRGTFIEFRNGMLNVSPIGRSCSQEERIEFYELDKKENIRQKFVADLRKEFAGKGLTFSIGGQISFDVFPDGWDKRYCLRHVENDGYKTIYFFGDKTMPGGNDHEIFTDPRTMGYSVTAPEDTRRICELLFS | – | binds |
